Measurements from patent US8759482B2, “Kinetically efficient substrate for lipoic acid ligase” (Massachusetts Institute of Technology, priority 2009, dated 2014).

Substrate: CC[C@H](C)[C@H](NC(=O)[C@H](CCC(=O)O)NC(=O)[C@H](Cc1ccccc1)NC(=O)CN)C(=O)N[C@@H](CC(=O)O)C(=O)N[C@@H](CCCCN)C(=O)N[C@H](C(=O)N[C@@H](Cc1c[nH]c2ccccc12)C(=O)N[C@@H](Cc1ccc(O)cc1)C(=O)N[C@@H](CC(=O)O)C(=O)N[C@@H](CC(C)C)C(=O)N[C@@H](CC(=O)O)C(=O)N[C@@H](C)C(=O)O)C(C)C
Test: Lp1A-catalyzed lipoylation kinetics (kcat, Km) by HPLC
Type: biochemical, Escherichia coli
Conditions: other: synthetic LAP2 peptide, 50 nM Lp1A, 750 μM lipoic acid, 30° C.
Protocol: Various concentrations of synthetic LAP2 peptide (not a fusion protein) were lipoylated with 50 nM Lp1A, 750 μM lipoic acid, and 3 mM ATP, and initial reaction rates were measured by HPLC. […] Measurements were performed in triplicate.
Using HPLC to quantify product formation, the kcat and Km values were measured for Lp1A-catalyzed lipoylation of a synthetic LAP2 peptide (without an attached fusion protein).
To measure the kcat and Km values for lipoylation, 50 nM Lp1A was combined with 750 μM lipoic acid, 2 mM ATP, and 5 mM magnesium acetate in DPBS. Varying concentrations of LAP2 (5.5, 11, 22, 44, 88, 176, or 352 μM) were used; 60 μL aliquots were removed from the 30° C. reactions at 5 min intervals, up to 20 min, and quenched with 180 mM EDTA (final concentration). HPLC was used to determine the amount of product in each aliquot, and kinetic parameters were extracted using the Michaelis-Menten equation as described previously.^13,28

B1: Escherichia coli lipoic acid ligase (Lp1A) (Escherichia coli K-12) (protein)
chain: MSTLRLLISDSYDPWFNLAVEECIFRQMPATQRVLFLWRNADTVVIGRAQNPWKECNTRRMEEDNVRLARRSSGGGAVFHDLGNTCFTFMAGKPEYDKTISTSIVLNALNALGVSAEASGRNDLVVKTVEGDRKVSGSAYRETKDRGFHHGTLLLNADLSRLANYLNPDKKKLAAKGITSVRSRVTNLTELLPGITHEQVCEAITEAFFAHYGERVEAEIISPNKTPDLPNFAETFARQSSWEWNFGQAPAFSHLLDERFTWGGVELHFDVEKGHITRAQVFTDSLNPAPLEALAGRLQGCLYRADMLQQECEALLVDFPEQEKELRELSAWMAGAVR
Question: Which Km does the source give for B1 here?
Answer: 13.32 ± 1.78 µM

Question: And the kcat?
Answer: 0.22 s⁻¹

Question: And the kcat/Km?
Answer: 16500 M⁻¹ s⁻¹
